Drawing on patent US20130273053A1 (UNIVERSITY OF LEICESTER, published 2013), this text covers Kd for 1 molecule.

What is called Kd is the free concentration of one partner at which half of the binding sites on the other are occupied at equilibrium, for simple one-to-one binding.

The assay deals with T1, human MASP-3 (human).
T1 construct: also called MASP-3 antigen
T1 chain: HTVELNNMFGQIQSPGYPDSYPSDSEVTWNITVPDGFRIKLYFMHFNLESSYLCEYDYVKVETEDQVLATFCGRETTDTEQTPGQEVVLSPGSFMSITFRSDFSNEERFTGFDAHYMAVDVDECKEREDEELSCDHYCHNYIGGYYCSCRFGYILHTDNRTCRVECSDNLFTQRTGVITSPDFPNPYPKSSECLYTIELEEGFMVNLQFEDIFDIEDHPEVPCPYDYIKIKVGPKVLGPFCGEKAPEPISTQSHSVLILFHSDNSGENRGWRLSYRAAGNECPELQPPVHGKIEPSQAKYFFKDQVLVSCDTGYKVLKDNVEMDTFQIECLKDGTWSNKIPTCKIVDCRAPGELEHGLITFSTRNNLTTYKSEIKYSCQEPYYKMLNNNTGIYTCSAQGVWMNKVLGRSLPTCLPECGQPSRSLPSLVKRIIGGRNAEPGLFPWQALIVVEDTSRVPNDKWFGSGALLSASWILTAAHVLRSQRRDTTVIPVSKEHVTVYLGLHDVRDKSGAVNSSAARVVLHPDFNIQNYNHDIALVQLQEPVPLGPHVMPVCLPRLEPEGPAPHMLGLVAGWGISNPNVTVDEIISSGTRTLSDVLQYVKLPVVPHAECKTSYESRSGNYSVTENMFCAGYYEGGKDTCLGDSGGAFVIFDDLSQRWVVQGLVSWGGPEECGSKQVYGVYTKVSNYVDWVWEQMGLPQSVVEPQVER
The assay can be described thus: saturation binding, DTLacO cells stained with fluorescent-labeled soluble antigen. The text has this: Recombinant antibodies were generated by cloning PCR-amplified V regions into a vector that supported expression of human IgG1 in 293F cells (Yabuki et al., PLoS ONE, 7(4):e36032 (2012)).

B1: MASP-3 specific clone M3J5 (antibody, IgM, V domains shown)
VH: AVTLDESGGGLQTPGGGLSLVCKASGFTFSSYAMGWMRQAPGKGLEYVAGIRSDGSFTLYATAVKGRATISRDNGQSTVRLQLNNLRAEDTATYFCTRSGNVGDIDAWGHGTEVIVSS
VL: ALTQPASVSANPGETVKITCSGGYSGYAGSYYYGWYQQKAPGSAPVTLIYYNNKRPSDIPSRFSGSLSGSTNTLTITGVRADDEAVYFCGSADNSGAAFGAGTTLTVL
notes: Chicken V regions; also called Clone 5; DTLacO clone M3J5
As to B1, the Kd was ~31 nM.
